From patent US20240261333A1 (published 2024)

How the values were obtained:
Test in all cases: co-IP, anti-FLAG, lysate of cells with N-FLAG B3GNT2; mass spectrometry
LMNA = target: T1, LMNA (human, UniProt P02545 1-646, limits assumed)
T1 construct: also called NP_733821.1
T1 sequence (looked up): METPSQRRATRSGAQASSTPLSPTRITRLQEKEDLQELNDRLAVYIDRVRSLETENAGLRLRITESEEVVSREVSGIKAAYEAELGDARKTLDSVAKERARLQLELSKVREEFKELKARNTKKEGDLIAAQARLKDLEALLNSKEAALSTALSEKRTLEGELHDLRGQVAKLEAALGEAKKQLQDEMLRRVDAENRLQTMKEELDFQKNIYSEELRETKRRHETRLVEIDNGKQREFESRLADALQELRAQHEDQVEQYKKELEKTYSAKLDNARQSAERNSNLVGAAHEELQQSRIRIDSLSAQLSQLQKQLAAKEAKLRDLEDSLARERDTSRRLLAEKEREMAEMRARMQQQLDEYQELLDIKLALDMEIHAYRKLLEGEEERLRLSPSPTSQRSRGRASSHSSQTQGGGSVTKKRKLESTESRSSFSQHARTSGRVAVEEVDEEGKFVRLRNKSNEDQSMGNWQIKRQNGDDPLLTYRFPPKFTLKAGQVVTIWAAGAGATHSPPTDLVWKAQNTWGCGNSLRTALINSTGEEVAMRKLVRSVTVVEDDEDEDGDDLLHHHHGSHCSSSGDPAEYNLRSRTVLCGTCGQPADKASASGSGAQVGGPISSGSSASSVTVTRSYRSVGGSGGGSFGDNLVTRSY

FAU = FAU (human, UniProt P62861 75-133)
UBAP2L = target: T2, UBAP2L (human, UniProt Q14157 1-1087)
T2 construct: also called NP_055662.3 (+3)
T2 sequence (looked up): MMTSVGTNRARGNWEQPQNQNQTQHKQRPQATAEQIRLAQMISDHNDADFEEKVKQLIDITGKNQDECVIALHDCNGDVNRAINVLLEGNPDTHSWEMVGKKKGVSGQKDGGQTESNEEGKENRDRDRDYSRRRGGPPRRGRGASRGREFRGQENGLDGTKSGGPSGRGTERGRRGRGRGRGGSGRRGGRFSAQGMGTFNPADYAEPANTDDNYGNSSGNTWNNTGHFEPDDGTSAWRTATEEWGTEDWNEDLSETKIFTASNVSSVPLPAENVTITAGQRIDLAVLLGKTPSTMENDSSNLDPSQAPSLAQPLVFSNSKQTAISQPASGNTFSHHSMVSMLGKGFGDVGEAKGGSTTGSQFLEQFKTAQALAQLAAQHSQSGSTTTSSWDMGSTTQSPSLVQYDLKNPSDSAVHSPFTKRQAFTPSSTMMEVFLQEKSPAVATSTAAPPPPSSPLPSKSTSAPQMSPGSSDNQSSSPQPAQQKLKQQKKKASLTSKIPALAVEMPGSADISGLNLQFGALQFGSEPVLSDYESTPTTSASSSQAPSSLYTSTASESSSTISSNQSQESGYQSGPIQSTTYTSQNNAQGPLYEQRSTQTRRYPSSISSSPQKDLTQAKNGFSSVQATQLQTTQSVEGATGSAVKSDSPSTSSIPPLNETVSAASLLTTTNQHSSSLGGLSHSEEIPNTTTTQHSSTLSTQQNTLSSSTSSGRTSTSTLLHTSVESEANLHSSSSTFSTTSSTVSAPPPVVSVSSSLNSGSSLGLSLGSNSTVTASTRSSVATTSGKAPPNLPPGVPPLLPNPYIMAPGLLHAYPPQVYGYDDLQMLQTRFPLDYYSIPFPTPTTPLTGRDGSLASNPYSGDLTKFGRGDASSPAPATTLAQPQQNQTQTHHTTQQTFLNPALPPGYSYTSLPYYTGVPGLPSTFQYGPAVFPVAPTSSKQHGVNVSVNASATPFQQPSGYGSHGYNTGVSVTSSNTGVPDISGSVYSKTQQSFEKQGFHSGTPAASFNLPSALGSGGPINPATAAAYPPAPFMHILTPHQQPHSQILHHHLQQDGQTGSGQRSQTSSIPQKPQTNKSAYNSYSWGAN

LSM12 = target: T3, LSM12 (human, UniProt Q3MHD2 2-195)
T3 construct: also called NP_689557.1

PRBP1 = target: T4, PRBP1 (human, UniProt P26599 1-557)
T4 construct: Label 'PRBP1' is probably a misprint of PTBP1; also called NP_002810.1 (+4)
T4 sequence (P26599 whole entry): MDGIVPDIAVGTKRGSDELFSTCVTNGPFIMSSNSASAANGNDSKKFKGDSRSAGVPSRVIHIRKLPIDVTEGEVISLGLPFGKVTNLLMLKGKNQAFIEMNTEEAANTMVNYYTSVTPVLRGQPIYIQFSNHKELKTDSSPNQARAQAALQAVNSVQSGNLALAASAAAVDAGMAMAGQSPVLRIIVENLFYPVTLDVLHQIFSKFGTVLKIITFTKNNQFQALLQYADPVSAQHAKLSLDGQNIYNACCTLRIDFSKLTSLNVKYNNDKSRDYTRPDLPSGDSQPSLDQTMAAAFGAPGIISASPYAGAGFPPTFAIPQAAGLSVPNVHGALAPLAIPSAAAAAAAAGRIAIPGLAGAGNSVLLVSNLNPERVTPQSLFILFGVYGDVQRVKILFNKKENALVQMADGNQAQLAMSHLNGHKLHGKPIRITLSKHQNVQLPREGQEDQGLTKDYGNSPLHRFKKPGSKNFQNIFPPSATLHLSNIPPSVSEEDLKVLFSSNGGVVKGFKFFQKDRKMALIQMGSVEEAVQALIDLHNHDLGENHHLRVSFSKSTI

T3 sequence (Q3MHD2 2-195 limits assumed): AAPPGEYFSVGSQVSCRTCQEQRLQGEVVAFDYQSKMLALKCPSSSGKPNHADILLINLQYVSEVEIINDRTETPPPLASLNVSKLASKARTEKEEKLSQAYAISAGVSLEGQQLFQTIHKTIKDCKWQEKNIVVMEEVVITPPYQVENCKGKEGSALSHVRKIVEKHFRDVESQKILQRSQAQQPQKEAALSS

B1: N-terminal FLAG tagged B3GNT2 (enzyme, human, UniProt Q9NY97 1-397, looked up)
chain: MSVGRRRIKLLGILMMANVFIYFIMEVSKSSSQEKNGKGEVIIPKEKFWKISTPPEAYWNREQEKLNRQYNPILSMLTNQTGEAGRLSNISHLNYCEPDLRVTSVVTGFNNLPDRFKDFLLYLRCRNYSLLIDQPDKCAKKPFLLLAIKSLTPHFARRQAIRESWGQESNAGNQTVVRVFLLGQTPPEDNHPDLSDMLKFESEKHQDILMWNYRDTFFNLSLKEVLFLRWVSTSCPDTEFVFKGDDDVFVNTHHILNYLNSLSKTKAKDLFIGDVIHNAGPHRDKKLKYYIPEVVYSGLYPPYAGGGGFLYSGHLALRLYHITDQVHLYPIDDVYTGMCLQKLGLVPEKHKGFRTFDIEEKNKNNICSYVDLMLVHSRKPQEMIDIWSQLQSAHLKC
notes: Overexpressed in cells and pulled down from the lysate with mouse anti-FLAG antibody; also called N-FLAG B3GNT2; N-term FLAG; not shown: N-terminal FLAG tag
How did the “co-IP mass spectrometry count” value (LMNA) turn out when B1 was run?
Its value is 11.

What about the “co-IP mass spectrometry count” value (FAU) of the same binder?
Its value is 5.

What about the “co-IP mass spectrometry count” value (UBAP2L) of the same binder?
The value was 20.

What about the “co-IP mass spectrometry count” value (LSM12) of the same binder?
The value was 4.

And the “co-IP mass spectrometry count” value (PRBP1)?
Its value is 6.
